The data set deals with the molecule itself. In words: in vitro assembly seen by negative-stain transmission electron microscopy.

What is called stoichiometry N is the number of molecules, sites or subunits per partner or assembly.

B1: Rous Sarcoma Virus capsid protein (RSV CA), wild type (natural protein, Rous Sarcoma Virus (strain Prague C), UniProt P03322 240-476, looked up)
chain: PVVIKTEGPAWTPLEPKLITRLADTVRTKGLRSPITMAEVEALMSSPLLPHDVTNLMRVILGPAPYALWMDAWGVQLQTVIAAATRDPRHPANGQGRGERTNLNRLKGLADGMVGNPQGQAALLRPGELVAITASALQAFREVARLAEPAGPWADIMQGPSESFVDFANRLIKAVEGSDLPPSARAPVIIDCFRQKSQPDIQQLIRTAPSTLTTPGEIIKYVLDRQKTAPLTDQGIA
For B1, the “stoichiometry N” value came out at 6.

(Values after publication doi:10.1101/098400 (bioRxiv, 2017).)
